The values that follow are results of earlier work, collected in publication PMC8512968.

The series addresses band 3 cytoplasmic domain (Homo sapiens) (UniProt P02730). Kind of series: sedimentation equilibrium AUC.

With “band 3 cytoplasmic domain (from UniProt P02730)”, the Kd (commonly the free concentration of one partner at which half of the binding sites on the other are occupied at equilibrium, for simple one-to-one binding) is 2.8 µM.
